Test results published in patent US20200085917A1.

Key:
Experiment in all cases: GST pull-down, LC-MS/MS
[1] = target: Ppt1_IPI:IPI00331318.2 (mouse) (UniProt O88531)
[2] = target: Asah1_IPI:IPI00125266.1 (mouse) (UniProt Q9WV54)
[3] = target: Isca2_IPI:IPI00120671.2 (mouse) (UniProt Q9DCB8)
[4] = target: Slc25a10_IPI:IPI00317074.3 (mouse) (UniProt Q9QZD8)
[5] = target: Mtx1_IPI:IPI00112327.1 (mouse) (UniProt P47802)
[6] = target: Ywhaq_IPI:IPI00408378.4 (mouse) (UniProt P68254)
[7] = target: Asrgl1_IPI:IPI00223875.1 (mouse) (UniProt Q8C0M9)
[8] = target: Nubpl_IPI:IPI00317709.1 (mouse) (UniProt Q9CWD8)
[9] = target: Mpst_IPI:IPI00604945.2 (mouse) (UniProt Q99J99)
[10] = target: Iscu_IPI:IPI00110578.1 (mouse) (UniProt Q9D7P6)
[11] = target: Actg1_IPI:IPI00136929.1 (mouse) (UniProt P63260)
[12] = target: Hsd17b10_IPI:IPI00320847.1 (mouse) (UniProt O08756)
[13] = target: Coq3_IPI:IPI00467124.2 (mouse) (UniProt Q8BMS4)
[14] = target: Rdh14_IPI:IPI00112377.1 (mouse) (UniProt Q9ERI6)
[15] = target: Lyrm4_IPI:IPI00169804.1 (mouse) (UniProt Q8K215)
[16] = target: Dnajc19_IPI:IPI00111111.5 (mouse) (UniProt Q9CQV7)
[17] = target: Arf2_IPI:IPI00135730.1 (mouse) (UniProt Q8BSL7)
[18] = target: Mrpl43_IPI:IPI00278781.1 (mouse) (UniProt Q99N89)
[19] = target: Mtch1_IPI:IPI00137173.1 (mouse) (UniProt Q791T5)
[20] = target: Uqcrq_IPI:IPI00224210.5 (mouse) (UniProt Q9CQ69)
[21] = target: Cplx1_IPI:IPI00132278.1 (mouse) (UniProt P63040)
[22] = target: Pnkd_IPI:IPI00187405.4 (mouse) (UniProt Q69ZP3)
[23] = target: Slc25a19_IPI:IPI00118826.1 (mouse) (UniProt Q9DAM5)
[24] = target: Tim17a (endogenous, mouse forebrain mitochondria) (mouse) (UniProt Q9Z0V8)
[25] = target: Hagh_IPI:IPI00115866.2 (mouse) (UniProt Q99KB8)
[26] = target: Tim23 (endogenous, mouse forebrain mitochondria) (mouse) (UniProt Q9WTQ8)
[27] = target: Rab5b_IPI:IPI00116563.2 (mouse) (UniProt P61021)
[28] = target: Nsf_IPI:IPI00656325.2 (mouse) (UniProt P46460)
[29] = target: Mrps33_IPI:IPI00135214.1 (mouse) (UniProt Q9D2R8)
[30] = target: Oxa1l_IPI:IPI00308001.1 (mouse) (UniProt Q8BGA9)
[31] = target: Acp6_IPI:IPI00624175.1 (mouse) (UniProt Q8BP40)
[32] = target: Fis1_IPI:IPI00132217.1 (mouse) (UniProt Q9CQ92)
[33] = target: Cisd1_IPI:IPI00128346.1 (mouse) (UniProt Q91WS0)

GST-Httex1-97Q, sequence (P08515 1-218, tags or fused parts left off): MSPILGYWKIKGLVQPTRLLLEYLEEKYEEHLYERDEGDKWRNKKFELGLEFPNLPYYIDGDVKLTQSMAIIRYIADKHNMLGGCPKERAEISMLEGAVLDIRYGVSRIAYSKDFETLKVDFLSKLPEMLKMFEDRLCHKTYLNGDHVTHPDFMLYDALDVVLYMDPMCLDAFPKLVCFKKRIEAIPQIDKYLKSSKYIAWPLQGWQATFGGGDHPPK
Isca2_IPI:IPI00120671.2 (mouse), sequence (Q9DCB8 9-154 limits assumed): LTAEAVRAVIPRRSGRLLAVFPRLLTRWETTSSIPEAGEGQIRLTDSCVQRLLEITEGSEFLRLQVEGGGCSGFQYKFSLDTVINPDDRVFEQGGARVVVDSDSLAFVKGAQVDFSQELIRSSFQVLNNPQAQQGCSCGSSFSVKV
Arf2_IPI:IPI00135730.1 (mouse), sequence (Q8BSL7 2-181 limits assumed): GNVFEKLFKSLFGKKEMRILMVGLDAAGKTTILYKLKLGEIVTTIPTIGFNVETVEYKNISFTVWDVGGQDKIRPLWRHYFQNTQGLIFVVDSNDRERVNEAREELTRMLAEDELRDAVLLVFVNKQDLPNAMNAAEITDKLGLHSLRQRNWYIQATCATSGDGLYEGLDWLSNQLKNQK
Slc25a19_IPI:IPI00118826.1 (mouse), sequence (Q9DAM5 whole entry): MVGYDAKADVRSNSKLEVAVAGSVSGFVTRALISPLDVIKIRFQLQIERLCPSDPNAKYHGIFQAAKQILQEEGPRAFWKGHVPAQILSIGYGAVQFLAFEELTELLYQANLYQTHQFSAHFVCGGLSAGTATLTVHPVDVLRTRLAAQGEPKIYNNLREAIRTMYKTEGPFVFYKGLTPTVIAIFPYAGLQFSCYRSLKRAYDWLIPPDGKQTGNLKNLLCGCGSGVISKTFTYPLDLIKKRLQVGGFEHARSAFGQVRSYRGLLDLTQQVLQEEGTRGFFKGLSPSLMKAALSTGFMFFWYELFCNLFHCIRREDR
Oxa1l_IPI:IPI00308001.1 (mouse), sequence (Q8BGA9 whole entry): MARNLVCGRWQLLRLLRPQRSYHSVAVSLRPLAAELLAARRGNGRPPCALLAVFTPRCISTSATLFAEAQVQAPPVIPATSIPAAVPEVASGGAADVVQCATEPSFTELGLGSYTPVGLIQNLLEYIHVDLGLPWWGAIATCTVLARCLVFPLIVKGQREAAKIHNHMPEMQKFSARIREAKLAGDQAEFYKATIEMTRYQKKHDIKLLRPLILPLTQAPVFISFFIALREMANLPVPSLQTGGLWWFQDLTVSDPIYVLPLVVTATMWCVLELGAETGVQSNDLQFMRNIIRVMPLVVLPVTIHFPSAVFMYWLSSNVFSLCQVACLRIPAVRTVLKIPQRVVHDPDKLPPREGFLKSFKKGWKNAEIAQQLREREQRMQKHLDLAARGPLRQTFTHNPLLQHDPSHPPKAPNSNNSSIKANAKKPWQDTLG
Coq3_IPI:IPI00467124.2 (mouse), sequence (Q8BMS4 87-370 limits assumed): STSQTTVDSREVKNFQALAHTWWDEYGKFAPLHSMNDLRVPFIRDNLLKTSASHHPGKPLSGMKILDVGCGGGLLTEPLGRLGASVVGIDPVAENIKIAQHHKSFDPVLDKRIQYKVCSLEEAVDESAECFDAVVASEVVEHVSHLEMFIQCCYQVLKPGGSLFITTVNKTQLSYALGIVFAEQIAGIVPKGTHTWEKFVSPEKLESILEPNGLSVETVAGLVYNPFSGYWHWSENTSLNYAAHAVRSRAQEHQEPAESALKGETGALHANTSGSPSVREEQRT
Asah1_IPI:IPI00125266.1 (mouse), sequence (Q9WV54 19-394 limits assumed): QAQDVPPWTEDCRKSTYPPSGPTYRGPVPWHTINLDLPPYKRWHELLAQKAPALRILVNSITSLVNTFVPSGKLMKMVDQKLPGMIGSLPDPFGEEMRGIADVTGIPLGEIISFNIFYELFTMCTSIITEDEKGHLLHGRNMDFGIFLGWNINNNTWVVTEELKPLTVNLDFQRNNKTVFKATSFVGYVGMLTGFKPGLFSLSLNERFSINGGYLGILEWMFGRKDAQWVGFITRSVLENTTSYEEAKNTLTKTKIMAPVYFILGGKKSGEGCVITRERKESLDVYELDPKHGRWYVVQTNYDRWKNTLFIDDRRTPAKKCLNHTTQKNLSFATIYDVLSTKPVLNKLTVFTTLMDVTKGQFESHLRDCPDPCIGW
Tim17a (endogenous, mouse forebrain mitochondria) (mouse), sequence (Q9Z0V8 whole entry): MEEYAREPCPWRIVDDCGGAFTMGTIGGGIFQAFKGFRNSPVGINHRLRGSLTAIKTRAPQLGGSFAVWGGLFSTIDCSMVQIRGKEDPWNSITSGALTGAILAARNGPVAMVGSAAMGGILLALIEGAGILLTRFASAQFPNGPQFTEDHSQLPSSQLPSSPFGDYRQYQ
Mpst_IPI:IPI00604945.2 (mouse), sequence (Q99J99 2-297 limits assumed): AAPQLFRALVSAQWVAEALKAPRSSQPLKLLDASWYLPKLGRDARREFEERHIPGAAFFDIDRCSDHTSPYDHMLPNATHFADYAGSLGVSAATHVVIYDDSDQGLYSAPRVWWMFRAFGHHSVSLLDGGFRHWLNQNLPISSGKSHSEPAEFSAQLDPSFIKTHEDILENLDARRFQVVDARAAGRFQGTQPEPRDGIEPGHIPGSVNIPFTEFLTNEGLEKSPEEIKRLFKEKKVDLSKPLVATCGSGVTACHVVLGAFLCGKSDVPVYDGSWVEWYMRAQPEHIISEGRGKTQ
Mtch1_IPI:IPI00137173.1 (mouse), sequence (Q791T5 whole entry): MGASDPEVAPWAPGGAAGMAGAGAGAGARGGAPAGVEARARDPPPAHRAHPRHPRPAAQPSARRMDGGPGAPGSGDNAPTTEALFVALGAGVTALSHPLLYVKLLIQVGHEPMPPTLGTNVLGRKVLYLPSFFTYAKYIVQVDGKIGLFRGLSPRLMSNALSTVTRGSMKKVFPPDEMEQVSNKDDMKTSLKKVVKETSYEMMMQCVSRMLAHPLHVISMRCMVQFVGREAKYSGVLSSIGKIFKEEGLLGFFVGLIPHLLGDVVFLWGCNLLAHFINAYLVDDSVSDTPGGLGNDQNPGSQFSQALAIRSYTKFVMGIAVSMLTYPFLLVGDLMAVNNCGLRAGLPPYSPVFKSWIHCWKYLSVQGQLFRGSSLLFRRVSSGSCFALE
Iscu_IPI:IPI00110578.1 (mouse), sequence (Q9D7P6 36-168 limits assumed): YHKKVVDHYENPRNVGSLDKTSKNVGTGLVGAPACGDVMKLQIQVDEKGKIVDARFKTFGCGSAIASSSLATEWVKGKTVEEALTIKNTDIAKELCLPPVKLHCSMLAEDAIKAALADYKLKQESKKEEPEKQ
Nsf_IPI:IPI00656325.2 (mouse), sequence (P46460 whole entry): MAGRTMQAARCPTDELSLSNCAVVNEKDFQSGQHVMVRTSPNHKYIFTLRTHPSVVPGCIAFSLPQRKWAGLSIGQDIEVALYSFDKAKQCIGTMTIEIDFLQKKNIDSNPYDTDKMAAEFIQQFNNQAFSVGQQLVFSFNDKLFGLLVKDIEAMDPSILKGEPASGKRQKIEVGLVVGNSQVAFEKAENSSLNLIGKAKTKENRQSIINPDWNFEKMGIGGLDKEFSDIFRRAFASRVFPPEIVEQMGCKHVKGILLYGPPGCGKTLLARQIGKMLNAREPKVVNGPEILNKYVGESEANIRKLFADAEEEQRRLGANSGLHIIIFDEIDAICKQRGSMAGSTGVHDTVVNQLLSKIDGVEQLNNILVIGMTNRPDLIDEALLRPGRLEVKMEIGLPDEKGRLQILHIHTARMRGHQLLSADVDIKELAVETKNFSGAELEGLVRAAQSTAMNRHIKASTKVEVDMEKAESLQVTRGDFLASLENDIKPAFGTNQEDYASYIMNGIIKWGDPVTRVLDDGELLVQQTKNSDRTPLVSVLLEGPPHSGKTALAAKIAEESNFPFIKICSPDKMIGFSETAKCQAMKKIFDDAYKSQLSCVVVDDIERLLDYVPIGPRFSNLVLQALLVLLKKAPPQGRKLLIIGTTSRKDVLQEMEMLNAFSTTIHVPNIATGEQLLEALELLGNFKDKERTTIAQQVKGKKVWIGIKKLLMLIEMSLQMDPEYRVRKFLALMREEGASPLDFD
Mtx1_IPI:IPI00112327.1 (mouse), sequence (P47802 whole entry): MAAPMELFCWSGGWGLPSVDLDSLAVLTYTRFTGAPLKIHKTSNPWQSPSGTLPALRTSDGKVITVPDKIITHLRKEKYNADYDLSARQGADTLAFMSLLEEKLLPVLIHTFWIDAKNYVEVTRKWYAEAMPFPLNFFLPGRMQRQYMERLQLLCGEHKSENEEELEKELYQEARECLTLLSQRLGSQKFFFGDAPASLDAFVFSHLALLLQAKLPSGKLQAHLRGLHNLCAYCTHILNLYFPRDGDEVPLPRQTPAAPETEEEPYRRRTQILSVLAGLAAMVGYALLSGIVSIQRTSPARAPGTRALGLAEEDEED
Rdh14_IPI:IPI00112377.1 (mouse), sequence (Q9ERI6 whole entry): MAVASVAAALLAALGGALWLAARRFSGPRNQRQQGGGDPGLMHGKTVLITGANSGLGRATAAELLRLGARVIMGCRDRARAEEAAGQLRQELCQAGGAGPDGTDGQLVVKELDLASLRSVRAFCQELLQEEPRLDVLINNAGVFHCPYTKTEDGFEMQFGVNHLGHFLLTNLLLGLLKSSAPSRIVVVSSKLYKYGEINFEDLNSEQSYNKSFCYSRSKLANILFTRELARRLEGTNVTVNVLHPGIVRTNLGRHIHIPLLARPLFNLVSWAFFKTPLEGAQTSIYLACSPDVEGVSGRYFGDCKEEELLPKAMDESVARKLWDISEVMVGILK
Hsd17b10_IPI:IPI00320847.1 (mouse), sequence (O08756 2-261 limits assumed): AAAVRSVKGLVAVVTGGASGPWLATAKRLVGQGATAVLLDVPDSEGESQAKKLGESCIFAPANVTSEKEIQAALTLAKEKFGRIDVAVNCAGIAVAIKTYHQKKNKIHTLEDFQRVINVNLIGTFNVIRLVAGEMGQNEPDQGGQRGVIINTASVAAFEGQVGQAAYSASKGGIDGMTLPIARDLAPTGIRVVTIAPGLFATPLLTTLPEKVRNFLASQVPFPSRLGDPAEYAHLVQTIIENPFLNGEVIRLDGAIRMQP
Mrpl43_IPI:IPI00278781.1 (mouse), sequence (Q99N89 whole entry): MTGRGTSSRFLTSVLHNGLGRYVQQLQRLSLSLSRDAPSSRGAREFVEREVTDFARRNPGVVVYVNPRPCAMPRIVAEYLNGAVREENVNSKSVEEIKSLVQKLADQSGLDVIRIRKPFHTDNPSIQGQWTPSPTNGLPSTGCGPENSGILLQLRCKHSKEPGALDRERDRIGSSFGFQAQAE

No. of total peptides [1]: 1 peptides | No. of unique peptides [1]: 1 peptides | No. of total peptides [2]: 3 peptides | No. of unique peptides [2]: 3 peptides | No. of total peptides [3]: 3 peptides | No. of unique peptides [3]: 3 peptides | No. of total peptides [4]: 1 peptides | No. of unique peptides [4]: 1 peptides | No. of total peptides [5]: 3 peptides | No. of unique peptides [5]: 3 peptides | No. of total peptides [6]: 1 peptides | No. of unique peptides [6]: 1 peptides | No. of total peptides [7]: 1 peptides | No. of unique peptides [7]: 1 peptides | No. of total peptides [8]: 1 peptides | No. of unique peptides [8]: 1 peptides | No. of total peptides [9]: 4 peptides | No. of unique peptides [9]: 4 peptides | No. of total peptides [10]: 2 peptides | No. of unique peptides [10]: 2 peptides | No. of total peptides [11]: 1 peptides | No. of unique peptides [11]: 1 peptides | No. of total peptides [12]: 1 peptides | No. of unique peptides [12]: 1 peptides | No. of total peptides [13]: 2 peptides | No. of unique peptides [13]: 1 peptides | No. of total peptides [14]: 1 peptides | No. of unique peptides [14]: 1 peptides | No. of total peptides [15]: 1 peptides | No. of unique peptides [15]: 1 peptides | No. of total peptides [16]: 1 peptides | No. of unique peptides [16]: 1 peptides | No. of total peptides [17]: 3 peptides | No. of unique peptides [17]: 3 peptides | No. of total peptides [18]: 1 peptides | No. of unique peptides [18]: 1 peptides | No. of total peptides [19]: 3 peptides | No. of unique peptides [19]: 3 peptides | No. of total peptides [20]: 1 peptides | No. of unique peptides [20]: 1 peptides | No. of total peptides [21]: 6 peptides | No. of unique peptides [21]: 4 peptides | No. of total peptides [22]: 1 peptides | No. of unique peptides [22]: 1 peptides | No. of total peptides [23]: 1 peptides | No. of unique peptides [23]: 1 peptides | No. of total peptides [24]: 1 peptides | No. of unique peptides [24]: 1 peptides | No. of total peptides [25]: 2 peptides | No. of unique peptides [25]: 2 peptides | No. of total peptides [26]: 1 peptides | No. of unique peptides [26]: 1 peptides | No. of total peptides [27]: 1 peptides | No. of unique peptides [27]: 1 peptides | No. of total peptides [28]: 1 peptides | No. of unique peptides [28]: 1 peptides | No. of total peptides [29]: 1 peptides | No. of unique peptides [29]: 1 peptides | No. of total peptides [30]: 1 peptides | No. of unique peptides [30]: 1 peptides | No. of total peptides [31]: 2 peptides | No. of unique peptides [31]: 2 peptides | No. of total peptides [32]: 2 peptides | No. of unique peptides [32]: 2 peptides | No. of total peptides [33]: 3 peptides | No. of unique peptides [33]: 2 peptides
Substance: GST-Httex1-97Q (from UniProt P08515 1-218; P42858 1-88)
